16 sequences from the DeepSol protein solubility set can be followed below.

The data set is described as follows: soluble on expression in E. coli; label from the status in PepcDB or PDB records.
As to “MSLGDAADPREMRKTFIVPAIKPFDHYDFSRAKIACNLAWLVAKAFGTENVPEELQEPFYTDQYDQEHIKPPVVNLLLSAELYCRAGSLILKSDAAKPLLGHDAVIQALAQKGLYVTDQEKLVTERDLHKKPIQMSAHLAMIDTLMMAYTVEMVSIEKVIACAQQYSAFFQATDLPYDIEDAVMYWINKVNEHLKDIMEQEQKLKEHHTVEAPGGQKEGHHHHHH”, the “soluble on expression in E. coli” value is reported as “soluble”.
Then “MSLGDQYTYYMNEKEFSDFKEKSQGNYMGIGIQVAVKDGKIVVISPIQGGPAEKAGIKTGDIILKVNGEPVSGNELDKAVSMMKGTTKENIKLTLYREGHHHHPPLIRIRAPSTSLRPHSSTTTTTTEIRLLTKPERKLSWLLPPLSNN”, with “soluble”; and “MSLGDSETIRILVSTDNHVGYNERDPIRGDDSWKSFHEVMCLAKQHDVDMVLLAGDLFHENKPSRKSMYQVMRSIRMNCLGDKPCELQLLSDASENFQGAFNHVNYEDLDINVGIPIFSIHGNHDDPSGEGHLAALDILQVSGLLNYYGRTPESDNIQLKPVLLQKGRTKLALYGMSNVRDERLFRTFRDGKVKFFRPSVQKEDWYNLICVHQNHHAYTETGYLPENFLPEFLDLVIWGHEHECLINPREGHHHHHH”, with “soluble”; and “MSLGDSNSSTPLPDTSYACQANVMTQSNQLRTYQIMVESFVDGDTSIGHGTGYGTSHHNGDLQGVIDSLDYIQDLGMNAIWLTPVFESEAIAGQDHWADRLDATGYFATDYFKIDPKFGDLATAKTLVEEAHKRGLYVFFDGVFGHHKNGLIKPSPSGLLPSGSSNPVDYPASLDFYKEVATYWIKELKIDGWRLDQAYQVPTDAWTQLRKAVDEASQSVTYTNSKGDQVNPLGYMVAEIWKGESEIANEAYGSNSDPALCSAFDFPMRYRIVETLAVNESGVGGRGVDWLDNGYSTHNQYPTHAQPNLMIGNHDLVRFGDLLQRGNLADVNDAEYWLRHKAAFAFQAAYTGPITLYYGDEIGDQVDGFAAKEDNNTCAIQGLCDDHVARSSAKIEGVTATLDANQADLKAYVTSLMTMRDTHPALYQGSRTNLVASNGSYVDLKQSGSDKVLFALNTLESARTVILAQESVGTGELVDLLTNEKIAPSNGQYQLPMSPLQGRFFAVTEGHHHHHH”, with “soluble”.
Then “MSLGEKRVELHLHTPMSQMDAVTPVSKLVAQAGKWGHEAIAVTDHAVAQSFPEAYSAGKKAGVKVIYGVEANLVNDGVPIAYNEEHRLLADETYVVFDVETTGLSAVYDTVIELAAVKVKGGEIIDRFESFANPHQPLSATIIELTGITDDMLTDAPEVDEVFKKFEEWMGDHTLVAHNASFDMGFINVGFKKAGLEKTKNPVIDTLELARFLFPEMKNHRLNTLCKKMDIELTQHHRAIYDTEATGYLLVKMLKDVIEKGFEYHDQLNDSMGQGDAYKRGRPSHMTLLATSDVGLKNLYKLVSYSHLNYFYRVPRVPRSLLKKYREGILVGTACDKGEVFEAMMQKAPEEVEEIAQFYDYIEVMPPEVLRHLVERELVRDEGQLKTIISNLVKLGETLDKPVVATGNVHYLDPEDAMYRKILVSSQGGANPLNRHSEGHHHHHH”, with “soluble”.
Then “MSLGEPEELVIGGVFSLSSGTSVEACRQALAGAMAAVEWVNSNGGVNIGGSKVPVRLLQEDDKGDPANAVRLIEYMARQRGVGVMLAPCDPGVLVDAVEAARGYGVVSIVYGDAPASVADPGGKTLLVGAPAEEYFTPVLEMVSILDIQSRNLAIVYQDTGFAAAVAEATRNRAVEQGFVVVLYSAYPPQAGEEELGTLALRLQASNPDVIIAIGGFRDGVELVRAMSSYGVEAKFIAMAVAPSVPEFYSELGALSQAILYPTLWELASKPYTTAEGYEWFGPSREEFYSLFREAIESLGHPVSEPGYHAAMAALAVLAVAKAAEEAGSLDPDAIYESLKNIKIMTFAGPFDLNPETGLQNEREVLVGQWINGRRFTVWPVGQAYATPVYPHEGHHHHHH”, with “soluble”; and “MSLGFVPVRGLHHFAYRCRDAEETRQFYEGILGLPLVHVVRAEEVPSTGEYCPYMHLFFEMKDGSCVAFFDLDDDTVPLPSSNTPVWAQHLALRVDSVAAVEEAKRKLEQAGVKVLGPVDHDGFVCSIYFFDPNGVRLELTTDTAEGHHHHHH”, with “soluble”.
Take “MSLGGSIKSPQSLTIDIIKRDYLNFKNKKILSFKDIKPKYDSQSDYHGNAIYYFMFYNKLKEFENIQNEKFKIKKEILKSYIIIIDEINRGNVSKIFGELITLIEPSKRIGEKEELKVTLPYSGEKFGVPKNVYIIGTMNTADRSITSLDTALRRRFEFVEMMPDVSKLSMDCEGINLQELLKAINTRIEYLLDREKTIGHAFFVSVENLEDLKKVFQNKIIPLLQEYFYNDYALINAVLNDNDMIFEDKKDDKYLQKIKNLDSVNSERSIYNIASFDDKIWDKIEIYQAIYNDEIANKLKNEGHHHHHH”: the “soluble on expression in E. coli” value was “not soluble”.
Then “MSLGKEAEMNYPTDEKNFFQILEEQLSYFKINKKIKEICIFIINNLDKKGYLELSKIEIKDILEVSNKELEEAFDIIHNLEPYGIGAYSLEECLKIQLKAKKIIEEKLSLFIDNYLYLLADKKYDLIKEKLNINDNILFSYIDIIKSLNPIPSRGYSVGKVRKIIPDVLVEIKKNEIFYEINRASIPQINVKDKIEDKYYKKINEIISCIEKRFETIDKIMKIIIREQKIFFTSQGKKINTLKISDIADKLNLSPSTVSRAVKEKYIKTNFGIISLRKLFNLDSAVFLYQQKILEYIENENKENPISDQDIVNLLEKDGIKIARRTVTKYREKLGYKSSHKRKKYEGHHHHHH”, with “not soluble”; and “MSLGLVVLKFGGTSVSTVDKIGKTADQAIYEKKQGNKVIVVVSAMGKSTDKLVAMAEEISEAPDKREMDMLLSTGEQITIALLAMTLKEKGHDAISYTGWQAGIETEAVHSNARIADIDSARIESALDAGQIVVVAGFQGFTTDGEITTLGRGGSDTTAVAIASALNAEKCAICTDVVGVFTTDPRYVKKAQKLEQITYDEMLELANLGAGVLHPRSVEYAKNFRIPLEVRASHEQVPGTMIEEDLTMENTKVVRGIAFEDQITRVTIHWKQKEAMRVSKVFTKLAENNIDVDIIIQGITGLGHGNLSFTIKTSALLATLAVLEESKELLQIEKLESEQELAKVSIVGSGMVSNPGVAAQMFEALTENNIPIKMISTSEIKVSTVVPARKMVEAAQVLHDQFELDKEGHHHHHH”, with “not soluble”; and “MSLGRIYRGVEVGDVALGGKTPEEAREIVLRRAEGALERVELRGGPEGEISFDARRMGIDYKVRETVQAAYAVGREGNLLERLGERLRAAYGTVQIEPRVDYRPSVARQRIEEVASRLDRPPRQAEVNVYGSEVDVVGSREGYRVDVEATMRSVGEAVEDMSGEARLVGRVLEPEYTTAEAERAAERARRALDGELVLTYEGRRWTVSPAAIGDSLDITARDGEFRVGVDRDRLRENLSGVYAAINQEPVEAGYEISGEQITVTPSRTGRAIQDEKLLGAIEEGIFEGRREYRIPVAVDRPELTTAEAERLKPTDLLATYQTNYLTYDDSPGRVENLEIASEAVDGTLLAPGEVFSFNELAAPLDYHDTKVIINGRVDTAEGGGLCQVSSTLYMAANLAGLDVIERHPHYAELPYIRPGFDATVWFGALDMKFKNTSPGYILIREWVDRSTGTVNAAIYGRPSGIEVDMRSEKVSETVDEEGNPVTTWITYQTVRKNGEVVFDGVLHKDVYKYLKPAAPDAEGHHHHHH”, with “soluble”.
Turning to “MSLGRLVLNTKEELANERLMTLKIAEMKEAMRTLIFPPSMHFFQAKHLIERSQVFNILRMMPKGAALHLHDIGIVTMDWLVRNVTYRPHCHICFTPRGIMQFRFAHPTPRPSEKCSKWILLEDYRKRVQNVTEFDDSLLRNFTLVTQHPEVIYTNQNVVWSKFETIFFTISGLIHYAPVFRDYVFRSMQEFYEDNVLYMEIRARLLPVYELSGEHHDEEWSVKTYQEVAQKFVETHPEFIGIKIIYSDHRSKDVAVIAESIRMAMGLRIKFPTVVAGFDLVGHEDTGHSLHDYKEALMIPAKDGVKLPYFFHAGETDWQGTSIDRNILDALMLNTTRIGHGFALSKHPAVRTYSWKKDIPIEVCPISNQVLKLVSDLRNHPVATLMATGHPMVISSDDPAMFGAKGLSYDFYEVFMGIGGMKADLRTLKQLAMNSIKYSTLLESEKNTFMEIWKKRWDKFIADVATKEGHHHHHH”, the “soluble on expression in E. coli” value is “not soluble”.
With “MSLGTFPAGVSADSVFVGLTIPLTGVFSGDGGDLKLGYELAIAQINAGSDIAQKWGLKGKGVLGRQIRHKVSDTEGKPNLDVQSATQFIQRDKAIMVSGSVSSSSAIALEELGSREKVLYMVGIAGSNDITGKNCQRYGFRSQQNAYMAAKGLAPVVAKALGKNIKMAFLVPDYTYGHSVYDSFSKFATEQGWKQVAKEVVPLGTTDYSSALLNIANSGADVFVNIAFGADSVASTKQAEQFGVLKRMKLVVPNLSSFQDKELGAELMQGVYGSCDFWFGLQDKFPLAKAFVDSFVAQNNYHPRWGAHIGYMQTYLWAMSVERANTFNPVDVIKVMENSKAQPYVTTIGNVYFRAEDHQMVRPIPILRGKKPSEMKHKEDFYDIIDLVDGEAVMNPPDLFGCKLGPYTEGHHHHHH”, the “soluble on expression in E. coli” value is “soluble”.
Then “MSLGVEGEMQSFMSDMGVQANVTGPSAYQGQSAGYYSMGSVWSRFPQKNIQPFNLQLPHARAGCGGIDLFAGSFSFINTAELVAMLKATANNALGFAFKLAIDTISPEIGKVMDELAQKVQQMNQMNISSCETAQALVGGLWPKSDTASSVICEAIANSQGAVSDWARARQQCNNGGQREALKSANSDPDMKEQAGMPNNYTWAALGKKYGGFDTQFREFLMTLVGTVIYDPAGNGGKPRVQFIGPADPALISAMLDGTSSTPHKYWSCGGDSAKCMAPSEIDMVIGPNAAIKARVRTLIESMALKVRDPGASLTPAEIQLLGMASVPVYKIITVSAAAEFGISAQEINDLSEIVAVDLVTTMTMRFIDMAVNARSDFNGADADSLREWREGLYETRRNFLGIAARTSQRFDQTFALIQRTQMLEKTLRTQLSPQMSAALRFSRTLGSQVQEGHHHHHH”, with “not soluble”; and “MSLGVKVKVINGGVLISQDLSCAGQVSTSVALPILGACGARPTVLPTAILSTHTGFKDNTYLDLSNEMSRIMSHWQKIDLEFKAIYLGYLGKEALDFWIKNIEQIIRTNQVVLIDPAMADHGKMYRGLDTDYIKKMRQLIFKATILTPNITEAAFLLNEDIPENSLEKAQVLAEKLVQRFAIPNVIITGITLSKDKIGEVGITKEGKWSIIQEKMPGDFFGTGDMFASAFLAAVLYGKNLEKSCAIAAEFVKLAIIDMDQKLESLFGPNYAAGLPWLLSELEKEGHHHHHH”, with “soluble”.
Then “MSLGVTVSKNEAQRLENLTRDALLSTRRLSLIVDLDQTIIHTTVDPTVAEWMDEIHREEMKDAQEKANVPTEEVKGKGEETTTPPGSPGPGALGITVESPKEKNPNAEALRDVAKFQIADDLPPGYVKLKTKTTKGQNPPESEGRWYFTKPRPGLQRFLDEMCQLYEMHVYTMGTRTYADAIVKVIDPDGKIFGGRILSRDESGSFSSKNLKRLFPTDTSMVVVIDDRSDVWGDCPNLVKVVPYDFFLGIGDINSSFLPTNKSTEGHHHHHH”, with “soluble”.
